The text below walks through data of patent US20210163595A1.

The target in assay [1] is cyno PD-1 expressed on cells (cynomolgus monkey) (UniProt B0LAJ3). Kind of assay: flow cytometry on CHO cells expressing cyno PD-1; negative control; fit value of a flat curve; no unit in the table. In general terms: Flow cytometry measures light scatter and fluorescence of single cells or particles in a stream.
The target of assay [2] is human PD-1 expressed on the cell surface (human) (UniProt Q15116). Nature of the assay: flow cytometry on CHO cells expressing human PD-1; negative control; fit value of a flat curve; no unit in the table.
UniProt Q15116, sequence (Q15116 25-198 limits assumed): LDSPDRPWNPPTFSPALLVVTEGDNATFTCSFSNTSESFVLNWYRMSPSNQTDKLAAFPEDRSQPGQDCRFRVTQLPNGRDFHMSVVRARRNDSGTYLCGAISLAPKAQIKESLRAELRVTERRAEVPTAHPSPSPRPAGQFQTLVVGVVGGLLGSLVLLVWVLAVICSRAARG
Assay [3] shares this target. Kind of assay: cell-based or functional assay.

UniProt B0LAJ3, sequence (B0LAJ3 entry or part of it limits assumed): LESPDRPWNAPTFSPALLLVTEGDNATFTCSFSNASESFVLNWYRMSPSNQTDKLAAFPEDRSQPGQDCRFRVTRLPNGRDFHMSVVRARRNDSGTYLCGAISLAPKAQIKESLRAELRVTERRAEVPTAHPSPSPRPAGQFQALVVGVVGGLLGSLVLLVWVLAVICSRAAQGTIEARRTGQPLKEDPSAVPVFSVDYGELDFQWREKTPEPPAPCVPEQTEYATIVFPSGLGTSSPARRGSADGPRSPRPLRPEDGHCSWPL

huIgG1 Fc: the LogEC50 was -6.89 in assay [1] and -7.75 in assay [2]. In the case of human IgG Fc fragment, in assay [3], the IL-17 and IFN-γ levels, human whole blood assay (EC50) is > 100 nM.
